From patent US8926955B2, “Synthesis of polymer conjugates of indolocarbazole compounds” (priority 2008, dated 2015)

Experiments:
rat = test: Acute dermal toxicity study in rats; format: in vivo
Protocol: The acute toxicity of the conjugate of Example 3 was investigated following administration of a single dermal dose to the rat.
A single dose of 2000 mg/kg was administered to a group of 5 male and 5 female animals for a 24 hour period. The day before scheduled dosing the fur was removed from the dorsal surfaces of the trunk over an estimated area of 10% of the total body surface. Care was taken to avoid any damage or abrasion to the skin. The test item was administered topically at a dose volume of 4 ml/kg body weight, just after its preparation. The required aliquot of the formulated test item was spread evenly over a gauze measuring 2.5×2.5 cm. The gauze patch was then placed onto the animal's skin, with the test item in direct contact with the skin. A strip of synthetic film was placed over the treated site and the whole assembly held in place by encircling the trunk of the animal with a length of elastic adhesive bandage. After a period of 24 hours, the tape dressing will be removed. The treated skin site was then gently washed free of any remaining test item using lukewarm water. Throughout the study, all animals will be checked twice daily. Animals were examined for signs of reaction to treatment on dosing, approximately 30 min, 2 and 4 hours after dosing on day 1, then daily for a total of 14 days. Each animal was weighed on the day of allocation to the study, on the day of dosing (day 1) and on days 8 and 15. After a 14 day period all animals were killed and subjected to a necropsy examination.

[1] = Toxicokinetics (plasma levels) in 13 week dermal rat study
Protocol: The purpose of this study was to evaluate the toxicity of the test item in rats after daily dermal administration (6 hours exposure) over a period of 13 weeks and to investigate possible recovery from any potential treatment-related effects over a period of 4 consecutive weeks. The toxicokinetic profile was also evaluated.
Three groups, each of 10 male and 10 female Sprague Dawley rats (cf. Table 1: male numbered with even numbers, female numbered with uneven numbers) received the test item by dermal application at dosages of 0.5, 2.5 and 5 mg/kg/day for 13 consecutive weeks (Table 1: group numbers 2-4). A fourth similarly constituted group received the vehicle alone (purified water) and acted as a control (Table 1: group number 1). Five additional animals for each sex were included in the high and control groups (Table 1: group numbers 4 and 1, respectively) for recovery assessment. In addition, 3 satellite groups for toxicokinetics, including 9 males and 9 females (Table 2: group numbers 5-8, respectively), and 1 control group, including 3 males and 3 females (Table 2: group number 5), were treated as the main groups for toxicokinetic evaluations.

[2] = Solubility in RPMI 1640 complete medium; format: physicochemical

oxazolidindionic conjugate of K252a with PEG (1892 MW) [test item]
abnormalities in the treated site (rat; 2000 mg/kg single dermal dose): No abnormalities were observed in the treated site | clinical signs (rat; 2000 mg/kg single dermal dose): no clinical signs were observed | internal abnormalities at necropsy (rat; 2000 mg/kg single dermal dose): No internal abnormalities were found at necropsy | mortality (rat; 2000 mg/kg single dermal dose, 14 day observation): No mortality occurred | changes in body weight (rat; 2000 mg/kg single dermal dose, end of study): within the expected range | toxic effect (rat; dermal exposure over 24 hours at 2000 mg/kg): no toxic effect | LD50 (rat; single dermal dose, 24 hour exposure, rat): greater than 2000 mg/kg | accumulation ([1]; daily dermal administration over 13 weeks): no accumulation has occurred | absorption through the dermal route ([1]; rat plasma sample analyses): only minimally absorbed | solubility [2]: ≥ 50.0 mg/mL
